Measured values as given in patent US20090060919A1 (AstraZeneca / MedImmune, published 2009).
Read-outs that look alike come from different tables or passages of the source.

Key:
[1] = target: T1, human IgEλ (U266 derived) (human, UniProt P01854-1 1-428); test: cell-based or functional assay
[2] = target: T1, human IgEλ (U266 derived); test: SPR (BIAcore 2000): IgG captured on protein G', IgE as analyte, bivalent analyte model; geomean
Procedure: (§1) In brief, Protein G′ (Sigma Aldrich, P4689) was covalently coupled to the surface of a CM5 sensor chip using standard amine coupling reagents according to manufacturer's instructions (BIAcore). […] The resulting sensorgrams were evaluated using BIA evaluation 3.1 software and fitted to a bivalent analyte model, to provide relative binding data.

[3] = target: T1, human IgEλ (U266 derived); test: flow cytometry: inhibition of IgE binding to CD23 on IM9 cells
Procedure: Antibodies were evaluated for inhibition of the IgE/CD23 interaction. […] In brief, titrations of the test IgG were mixed with IgE prior to incubation with 1M9 cells.
Assay plates were incubated on ice for 20 minutes in the dark before centrifuging at 2000 rpm for 2 minutes and washing with 2×200 uL of Flow buffer as described above. Cells were resuspended in 100 uL Cell Fix (BD biosciences) and analysed using a FACSCalibur (BD Biosciences) to detect FL2 staining.

[4] = target: T2, IgE in human serum (human, UniProt P01854-1 1-428); test: ELISA: free serum IgE captured on coated FcERI-Fc-His after mixing serum with antibody; representative experiment
T2 construct: also called IgE in serum; free IgE
T2 sequence (P01854 other isoform, or with tags, fused parts or gaps): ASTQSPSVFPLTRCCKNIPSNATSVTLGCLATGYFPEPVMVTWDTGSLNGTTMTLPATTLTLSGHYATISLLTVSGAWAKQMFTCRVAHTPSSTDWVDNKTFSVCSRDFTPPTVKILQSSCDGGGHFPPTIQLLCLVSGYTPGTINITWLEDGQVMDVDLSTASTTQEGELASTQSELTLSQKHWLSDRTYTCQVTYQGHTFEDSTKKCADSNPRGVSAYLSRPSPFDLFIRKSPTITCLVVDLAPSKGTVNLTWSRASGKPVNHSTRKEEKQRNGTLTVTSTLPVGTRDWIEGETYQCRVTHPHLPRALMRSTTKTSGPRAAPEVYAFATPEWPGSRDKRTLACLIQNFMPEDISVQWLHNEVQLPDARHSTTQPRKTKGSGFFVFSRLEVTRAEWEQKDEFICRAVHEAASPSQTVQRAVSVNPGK
Procedure: Serum samples were prepared from blood samples from human donors. […] To reduce background binding, plates were subsequently incubated with 200 μl/well of block buffer consisting of PBS containing 0.5% BSA, incubated at room temperature for 2 hours, and washed three times with PBST as described above. […] The plates were sealed and samples incubated at room temperature for 2 hours. To remove unbound sample, plates were washed three times with PBST as described. […] The plates were then sealed again, and incubated for 1 hour at room temperature. […] The conjugate was diluted 1:25000 in PBST, 150 μl added per well, the plates sealed, and incubated for 1 hour at room temperature. The plates were then washed three times with PBST as described. TMB-substrate solution (DAKO Substrate-Chromogen, No. S1599), 150 μl/well, was then added to each well and the plates incubated for 10 minutes at room temperature.

[5] = target: T3, human IgE (human, UniProt P01854-1 1-428); test: KinExA
T3 construct: lead-isolation RBL-ER51 assays: Calbiochem or U266-derived; also called IgE (Calbiochem or U266-derived); purified human IgE
T3 sequence (P01854 other isoform, or with tags, fused parts or gaps): as above

[6] = target: T3, human IgE; test: cell-based or functional assay
[7] = target: T1, human IgEλ (U266 derived); test: cell-based or functional assay; remark: listed apart in the source
[8] = target: T1, human IgEλ (U266 derived); test: SPR (BIAcore 2000): IgG captured on protein G', IgE as analyte, bivalent analyte model; geomean; remark: listed apart in the source
Procedure: as §1

T1 sequence (P01854 other isoform, or with tags, fused parts or gaps): as above

| Binder | RBL-ER51 calcium signalling IC50 (Geomean), Human IgE [1] | Kd [2] | IC50 [3] | RBL-ER51 calcium signalling IC50 (Geomean), Human IgE [7] | Kd [8] | other results |
| --- | --- | --- | --- | --- | --- | --- |
| Antibody 8 IgG (antibody, V domains shown, Whole human IgG (section 1.4: IgG1)) VH: QVQLVQSGAEVKKPGATVKLSCKVYGYIFTDYNIYWVRQAPGKGLEWMGLIDPDNGETFYAEKFQGRATMTADTSSDRAYMELTSLTFEDTATYYCATVLGRWIKGGYDYWGRGTLVTVSS VL: QSVLTQPPSVSGAPGQRVTISCTGSSSNIGAGYDVHWYQQLPGTAPKLLIYDNFNRPSGVPDRFSGSKSGTSASLAIIGLQTEDEADYYCQSYDSPTHTSPFGTGTKLTVL | 0.112 nM | 2.6 nM | 16.5 nM |  |  |  |
| Antibody 11 IgG (antibody, V domains shown, Whole human IgG (section 1.4: IgG1)) VH: QVQLVQSGAEVKKPGATVKLSCKVYGYIFTDYNIYWVRQAPGKGLEWMGLIDPDNGETFYAEKFQGRATMTADTSSDRAYMELTSLTFEDTATYYCATVMGKWIKGGYDYWGRGTLVTVSS VL: QSVLTQPPSVSGAPGQRVTISCTGSSSNIGAGYDVHWYQQLPGTAPKLLIYDNFNRPSGVPDRFSGSKSGTSASLAIIGLQTEDEADYYCQSYDSPTLTSPFGTGTKLTVL | 0.069 nM | 1.6 nM | 23 nM |  |  | IC50 [4]: 0.202 nM; Kd [5]: 0.0063 nM; induction of IgE positive human B cells (intracellular IgE, flow cytometry), IC50 [6]: 1.6 nM; β-hexosaminidase release of LAD2 mast cells, IC50 [6]: 0.04 nM |
| Antibody 8 GL IgG (antibody, V domains shown, Germlined IgG) VH: EVQLVQSGAEVKKPGATVKISCKVYGYIFTDYNIYWVRQAPGKGLEWMGLIDPDNGETFYAEKFQGRATMTADTSSDRAYMELSSLRFEDTAVYYCATVLGRWIKGGYDYWGRGTLVTVSS VL: QSVLTQPPSVSGAPGQRVTISCTGSSSNIGAGYDVHWYQQLPGTAPKLLIYDNFNRPSGVPDRFSGSKSGTSASLAITGLQAEDEADYYCQSYDSPTHTSPFGTGTKLTVL |  |  |  | 0.085 nM | 2.5 nM |  |
| Antibody 11 GL IgG (antibody, V domains shown, Germlined IgG) VH: EVQLVQSGAEVKKPGATVKISCKVYGYIFTDYNIYWVRQAPGKGLEWMGLIDPDNGETFYAEKFQGRATMTADTSSDRAYMELSSLRFEDTAVYYCATVMGKWIKGGYDYWGRGTLVTVSS VL: QSVLTQPPSVSGAPGQRVTISCTGSSSNIGAGYDVHWYQQLPGTAPKLLIYDNFNRPSGVPDRFSGSKSGTSASLAITGLQAEDEADYYCQSYDSPTLTSPFGTGTKLTVL |  |  |  | 0.084 nM | 1.5 nM |  |
| Antibody 1 IgG (antibody, V domains shown, IgG1 or IgG2 vectors named; also called parent antibody) VH: QVQLVQSGAEVKKPGATVKLSCKVYGYIFTDYNIYWVRQAPGKGLEWMGLIDPDNGETFYAEKFQGRATMTADTSSDRAYMELTSLTFEDTATYYCATVLHRRLKGGYDYWGRGTLVTVSS VL: QSVLTQPPSVSGAPGQRVTISCTGSSSNIGAGYDVHWYQQLPGTAPKLLIYDNFNRPSGVPDRFSGSKSGTSASLAIIGLQTEDEADYYCQSYDSSLSGSLFGTGTKLTVL |  |  | 16 nM |  |  |  |
